Numbering of substitutions follows the chain as printed.
B1: KSQVISNAKNTVQGFKRFHGRAFSDPFVEAEKSNLAYDIVQWPTGLTGIKVTYMEEERNFTTEQVTAMLLSKLKETAESVLKKPVV (peptide)
chain: KSQVISNAKNTVQGFKRFHGRAFSDPFVEAEKSNLAYDIVQWPTGLTGIKVTYMEEERNFTTEQVTAMLLSKLKETAESVLKKPVV
B2: KSQVISNAKNTVQGFKRFHGRAFSDPFVEAEKSNLAYDIVQWPTGLTGIKVTYMEEERNFTIEQVTAMLLSKLKETAESVLKKPVV (peptide)
chain: B1 chain with T62I

Columns and labels:
[1] = test system: cancer, cardiac and neuronal cell lines; assay: Categorisation of active ADPs as pro-/anti-apoptotic (Example 15); details: criteria of Example 15
[2] = Effectiveness of ADPs (Example 1, Table 6; cell death assays of FIGS. 10-13); type: cell-based; details: ADPs with N-terminal tumor penetrating peptide and C-terminal fluorescent tag; graded in words
Source text: FIGS. 10A-C show the sequences mapped, peptide blots, imaging to show expression and cell death assays for these three peptides. A) PPA-1 (PEPTIDE23) (SEQ ID NO:23), B) PPA4 (PEPTIDE19) (SEQ ID NO:19), C) PPA10 (PEPTIDE16 including FF at C-terminus) (SEQ ID NO:16).
FIGS. 11A-B show the sequences mapped, peptide blots, imaging to show expression and cell death assays for these HSP-70 peptides. A) PHA4 (PEPTIDE5) (SEQ ID NO:5), B) PHA5 (PEPTIDE13 plus C-terminal L) (SEQ IDS NO: 13).
FIGS. 12A-C show the sequences mapped, peptide blots, imaging to show expression and cell death assays for these p65 (RELA) peptides. A) PRA1 (PEPTIDE14) (SEQ ID NO:14), B) PRA8 (PEPTIDE8) (SEQ ID NO:8), C) PRA9 (SEQ ID Nos:33 and 37-45).
FIGS. 13A-D show the sequences mapped, peptide blots, imaging to show expression and cell death assays for these HSP-70 peptides. A) PAA1-1 (PEPTIDE11) (SEQ ID NO:11), B) PPA1-3 (PEPTIDE15) (SEQ ID NO:15), C) PAR1 (PEPTIDE19), D) Paint 1 (PEPTIDE7) (SEQ ID NO:7).
ADPs were first identified using Peptide SPOT analysis. Peptides were identified from AKIP1. PKAc, HSP-70 and p65 sequences. The identified ADPs were attached at the N-terminus to tumor penetrating peptide based on the CENDR rule (FIG. 9). A fluorescent tag was attached to the C-terminus for ease of visualization. […]

Row | Molecule | Pro-apoptotic (anti-angiogenic) category [1] | Effectiveness [2]
1 | B1 | Pro-apoptotic (anti-angiogenic) | –
2 | B2 | – | Moderate

From patent US11608367B2, “Peptides for angiogenic therapy” (The Regents of the University of California, priority 2018, dated 2023)
